Experiments:
Conditions in all cases: remark: other sources report otherwise
[1] = molecular target: Tex_s127H1-t2-cl18long (influenza A virus H1N1 A/Texas/UR06-0526/07)
[2] = molecular target: NY_s127H1-t2-cl18long (influenza A virus H1N1 A/New York/629/95)
[3] = molecular target: 138F11 (influenza A H1N1 A/Brisbane/59/2007); assay: ELISA, coated CR6261, P. pastoris medium
[4] = molecular target: 188A8 (influenza A H1N1 A/Brisbane/59/2007); assay: ELISA, coated CR6261, P. pastoris medium
[5] = molecular target: 131D5 (influenza A H1N1 A/Brisbane/59/2007); assay: ELISA, coated CR6261, P. pastoris medium
[6] = molecular target: 148D5 (influenza A H1N1 A/Brisbane/59/2007); assay: ELISA, coated CR6261, P. pastoris medium
[7] = molecular target: 187H10 (influenza A H1N1 A/Brisbane/59/2007); assay: ELISA, coated CR6261, P. pastoris medium
[8] = molecular target: 271F10 (influenza A H1N1 A/Brisbane/59/2007); assay: ELISA, coated CR6261, P. pastoris medium
[9] = molecular target: 275D4 (influenza A H1N1 A/Brisbane/59/2007); assay: ELISA, coated CR6261, P. pastoris medium
[10] = molecular target: 243D6 (influenza A H1N1 A/Brisbane/59/2007); assay: ELISA, coated CR6261, P. pastoris medium
[11] = molecular target: 127H1 (influenza A H1N1 A/Brisbane/59/2007); assay: ELISA, coated CR6261, P. pastoris medium
[12] = molecular target: 182D3 (influenza A H1N1 A/Brisbane/59/2007); assay: ELISA, coated CR6261, P. pastoris medium
[13] = molecular target: 112G6 (influenza A H1N1 A/Brisbane/59/2007); assay: ELISA, coated CR6261, P. pastoris medium
[14] = molecular target: 275G3 (influenza A H1N1 A/Brisbane/59/2007); assay: ELISA, coated CR6261, P. pastoris medium
[15] = molecular target: 252F5 (influenza A H1N1 A/Brisbane/59/2007); assay: ELISA, coated CR6261, P. pastoris medium

B1: CR6261 (antibody, V domains shown)
VH: EVQLVESGAEVKKPGSSVKVSCKASGGPFRSYAISWVRQAPGQGPEWMGGIIPIFGTTKYAPKFQGRVTITADDFAGTVYMELSSLRSEDTAMYYCAKHMGYQVRETMDVWGKGTTVTVSS
VL: QSVLTQPPSVSAAPGQKVTISCSGSSSNIGNDYVSWYQQLPGTAPKLLIYDNNKRPSGIPDRFSGSKSGTSATLGITGLQTGDEANYYCATWDRRPTAYVVFGGGTKLTVLG
B1 was tested, and the EC50 [1] was 0.369 µg/mL, the EC50 [2] was 0.455 µg/mL and the CR6261 binding signal [3] was 148000. The CR6261 binding signal [4] was 279000, the CR6261 binding signal [5] was 345000 and the CR6261 binding signal [6] was 329000. It also gave a CR6261 binding signal [7] of 299000, a CR6261 binding signal [8] of 315000 and a CR6261 binding signal [9] of 327000. It also gave a CR6261 binding signal [10] of 132000, a CR6261 binding signal [11] of 800000 and a CR6261 binding signal [12] of 143000. The CR6261 binding signal [13] was 544000, the CR6261 binding signal [14] was 115000 and the CR6261 binding signal [15] was 422000.
